From paper PMC8350011, “Interactions between semaphorins and plexin–neuropilin receptor complexes in the membranes of live cells” (The Journal of Biological Chemistry, 2021)

Experiments:
Experiment in all cases: PIE-FCCS (pulsed-interleaved excitation fluorescence cross-correlation spectroscopy); single live Cos-7 cells co-expressing eGFP and mCherry fusions, peripheral membrane, no exogenous ligand; 85 to 1245 molecules/μm^2; fraction correlated (fc): median below 0.09 monomer, 0.09-0.17 dimer, above 0.17 higher oligomers (homotypic)
[1] = biological target: the molecule itself
[2] = biological target: T1, plexin A4 (human, UniProt Q9HCM2 24-1894); details: partners not purified
T1 construct: Two constructs (eGFP and mCherry fusions); The N1 vectors probably put the fluorescent protein at the C-terminus; also called plexin A4-eGFP; plexin A4-mCh; source: Cos-7, transiently transfected, in the membrane of live cells

[3] = biological target: T2, plexin A4ΔSema (human, UniProt Q9HCM2 24-1894, deletes residues 39 to 506); details: partners not purified
T2 construct: also called plexin A4ΔSema-eGFP; plexin A4ΔSema-mCh; source: Cos-7, transiently transfected, in the membrane of live cells
T2 sequence (looked up): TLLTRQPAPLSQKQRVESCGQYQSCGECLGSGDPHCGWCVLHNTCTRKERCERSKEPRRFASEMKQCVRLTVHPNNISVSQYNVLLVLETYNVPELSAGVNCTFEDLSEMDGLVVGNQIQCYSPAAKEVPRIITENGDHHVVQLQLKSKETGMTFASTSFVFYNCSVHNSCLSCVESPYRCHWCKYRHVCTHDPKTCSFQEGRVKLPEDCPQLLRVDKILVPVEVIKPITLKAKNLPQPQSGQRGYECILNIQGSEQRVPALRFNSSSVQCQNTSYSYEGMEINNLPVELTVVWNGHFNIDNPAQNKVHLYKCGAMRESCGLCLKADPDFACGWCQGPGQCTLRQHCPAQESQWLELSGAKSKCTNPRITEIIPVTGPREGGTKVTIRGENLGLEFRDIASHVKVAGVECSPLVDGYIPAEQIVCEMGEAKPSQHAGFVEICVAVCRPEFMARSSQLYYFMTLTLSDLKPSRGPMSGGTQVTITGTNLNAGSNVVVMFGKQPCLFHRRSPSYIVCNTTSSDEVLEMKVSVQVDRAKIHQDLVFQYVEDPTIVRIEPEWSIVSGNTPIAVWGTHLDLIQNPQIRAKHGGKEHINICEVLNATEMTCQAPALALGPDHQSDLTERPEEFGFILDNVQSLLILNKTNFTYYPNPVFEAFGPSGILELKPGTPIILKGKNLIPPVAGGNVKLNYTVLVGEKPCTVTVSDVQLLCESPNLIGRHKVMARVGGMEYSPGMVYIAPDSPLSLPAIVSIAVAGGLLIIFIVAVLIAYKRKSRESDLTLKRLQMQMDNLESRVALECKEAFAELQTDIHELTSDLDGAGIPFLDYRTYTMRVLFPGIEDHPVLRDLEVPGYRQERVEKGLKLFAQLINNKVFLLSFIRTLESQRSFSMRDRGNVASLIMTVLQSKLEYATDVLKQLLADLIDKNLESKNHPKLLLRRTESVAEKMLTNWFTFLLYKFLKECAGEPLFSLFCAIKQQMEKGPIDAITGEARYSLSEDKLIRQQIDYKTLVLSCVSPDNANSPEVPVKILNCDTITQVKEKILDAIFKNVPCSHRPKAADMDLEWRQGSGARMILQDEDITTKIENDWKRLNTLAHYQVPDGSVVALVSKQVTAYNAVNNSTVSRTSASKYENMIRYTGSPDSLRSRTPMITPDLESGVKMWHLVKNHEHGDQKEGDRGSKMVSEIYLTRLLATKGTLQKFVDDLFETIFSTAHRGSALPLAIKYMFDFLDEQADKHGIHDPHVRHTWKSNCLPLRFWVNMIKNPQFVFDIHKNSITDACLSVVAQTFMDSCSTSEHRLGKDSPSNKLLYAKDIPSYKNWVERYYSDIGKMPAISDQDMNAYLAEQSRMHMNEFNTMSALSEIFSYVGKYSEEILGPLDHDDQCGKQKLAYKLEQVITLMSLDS

median fraction correlated (fc) [2]: 0.08
median fraction correlated (fc) [3]: 0.23
B1: plexin A2 (receptor, human, UniProt O75051 35-1894, looked up)
chain: MPQFSTFHSENRDWTFNHLTVHQGTGAVYVGAINRVYKLTGNLTIQVAHKTGPEEDNKSCYPPLIVQPCSEVLTLTNNVNKLLIIDYSENRLLACGSLYQGVCKLLRLDDLFILVEPSHKKEHYLSSVNKTGTMYGVIVRSEGEDGKLFIGTAVDGKQDYFPTLSSRKLPRDPESSAMLDYELHSDFVSSLIKIPSDTLALVSHFDIFYIYGFASGGFVYFLTVQPETPEGVAINSAGDLFYTSRIVRLCKDDPKFHSYVSLPFGCTRAGVEYRLLQAAYLAKPGDSLAQAFNITSQDDVLFAIFSKGQKQYHHPPDDSALCAFPIRAINLQIKERLQSCYQGEGNLELNWLLGKDVQCTKAPVPIDDNFCGLDINQPLGGSTPVEGLTLYTTSRDRMTSVASYVYNGYSVVFVGTKSGKLKKIRADGPPHGGVQYEMVSVLKDGSPILRDMAFSIDQRYLYVMSERQVTRVPVESCEQYTTCGECLSSGDPHCGWCALHNMCSRRDKCQQAWEPNRFAASISQCVSLAVHPSSISVSEHSRLLSLVVSDAPDLSAGIACAFGNLTEVEGQVSGSQVICISPGPKDVPVIPLDQDWFGLELQLRSKETGKIFVSTEFKFYNCSAHQLCLSCVNSAFRCHWCKYRNLCTHDPTTCSFQEGRINISEDCPQLVPTEEILIPVGEVKPITLKARNLPQPQSGQRGYECVLNIQGAIHRVPALRFNSSSVQCQNSSYQYDGMDISNLAVDFAVVWNGNFIIDNPQDLKVHLYKCAAQRESCGLCLKADRKFECGWCSGERRCTLHQHCTSPSSPWLDWSSHNVKCSNPQITEILTVSGPPEGGTRVTIHGVNLGLDFSEIAHHVQVAGVPCTPLPGEYIIAEQIVCEMGHALVGTTSGPVRLCIGECKPEFMTKSHQQYTFVNPSVLSLNPIRGPESGGTMVTITGHYLGAGSSVAVYLGNQTCEFYGRSMSEIVCVSPPSSNGLGPVPVSVSVDRAHVDSNLQFEYIDDPRVQRIEPEWSIASGHTPLTITGFNLDVIQEPRIRVKFNGKESVNVCKVVNTTTLTCLAPSLTTDYRPGLDTVERPDEFGFVFNNVQSLLIYNDTKFIYYPNPTFELLSPTGVLDQKPGSPIILKGKNLCPPASGGAKLNYTVLIGETPCAVTVSETQLLCEPPNLTGQHKVMVHVGGMVFSPGSVSVISDSLLTLPAIVSIAAGGSLLLIIVIIVLIAYKRKSRENDLTLKRLQMQMDNLESRVALECKEAFAELQTDINELTSDLDRSGIPYLDYRTYAMRVLFPGIEDHPVLRELEVQGNGQQHVEKALKLFAQLINNKVFLLTFIRTLELQRSFSMRDRGNVASLIMTGLQGRLEYATDVLKQLLSDLIDKNLENKNHPKLLLRRTESVAEKMLTNWFAFLLHKFLKECAGEPLFMLYCAIKQQMEKGPIDAITGEARYSLSEDKLIRQQIEYKTLILNCVNPDNENSPEIPVKVLNCDTITQVKEKILDAVYKNVPYSQRPRAVDMDLEWRQGRIARVVLQDEDITTKIEGDWKRLNTLMHYQVSDRSVVALVPKQTSSYNIPASASISRTSISRYDSSFRYTGSPDSLRSRAPMITPDLESGVKVWHLVKNHDHGDQKEGDRGSKMVSEIYLTRLLATKGTLQKFVDDLFETLFSTVHRGSALPLAIKYMFDFLDEQADRHSIHDTDVRHTWKSNCLPLRFWVNVIKNPQFVFDIHKGSITDACLSVVAQTFMDSCSTSEHRLGKDSPSNKLLYAKDIPSYKSWVERYYADIAKLPAISDQDMNAYLAEQSRLHAVEFNMLSALNEIYSYVSKYSEELIGALEQDEQARRQRLAYKVEQLINAMSIES
notes: Two constructs (pEGFP-N1 and pmCh-N1, EcoR1 and Kpn1 sites); the N1 vectors probably put the fluorescent protein at the C-terminus; also called plexin A2-eGFP; plexin A2-mCh; source: Cos-7, transiently transfected, in the membrane of live cells
median fraction correlated (fc) [1]: 0.09
stoichiometry N [1]: 2
